Data reported in paper PMC7311396, “Ultra-large chemical libraries for the discovery of high-affinity peptide binders” (Nature Communications, 2020).

Molecular target: FITC-labeled NB.1
Assay: fluorescence polarisation; direct fluorescence anisotropy: 1:1 dilution series of 14-3-3γ (starting at 100 μM) into FITC-labeled peptide (10 nM or 50 nM); 10 mM HEPES pH 7.4, 150 mM NaCl, 0.1% Tween 20, 0.1% BSA; ambient temperature

fold weaker binding than the 14-3-3γ-binding peptides: 10000 fold
B1: 14-3-3γ (natural protein)
chain: MVDREQLVQKARLAEQAERYDDMAAAMKNVTELNEPLSNEERNLLSVAYKNVVGARRSSWRVISSIEQKTSADGNEKKIEMVRAYREKIEKELEAVCQDVLSLLDNYLIKNCSETQYESKVFYLKMKGDYYRYLAEVATGEKRATVVESSEKAYSEAHEISKEHMQPTHPIRLGLALNYSVFYYEIQNAPEQACHLAKTAFDDAIAELDTLNEDSYKDSTLIMQLLRDNLTLWTSDQQDDDGGEGNN
